This data set concerns the molecule itself. Briefly: non-reducing SDS-PAGE with immunoblot; 0.5 uM purified His-ALAD preincubated in PBS, untreated or oxidized (1 mM H2O2); non-reducing 10% SDS polyacrylamide gel; anti-His blot.

B1: recombinant His-tagged ALAD (ALAD1 without the predicted transit peptide) (enzyme, Arabidopsis thaliana, UniProt Q9SFH9 53-430, looked up)
chain: ASESGNGHAKKLGMSDAECEAAVAAGNVPEAPPVPPKPAAPVGTPIIKPLNLSRRPRRNRASPVTRAAFQETDISPANFVYPLFIHEGEEDTPIGAMPGCYRLGWRHGLVQEVAKARAVGVNSIVLFPKVPEALKNSTGDEAYNDNGLVPRTIRLLKDKYPDLIIYTDVALDPYSSDGHDGIVREDGVIMNDETVHQLCKQAVSQARAGADVVSPSDMMDGRVGAIRSALDAEGFQNVSIMSYTAKYASSFYGPFREALDSNPRFGDKKTYQMNPANYREALIEAREDEAEGADILLVKPGLPYLDIIRLLRDKSPLPIAAYQVSGEYSMIKAGGVLKMIDEEKVMMESLMCLRRAGADIILTYFALQAATCLCGEKR
notes: Arabidopsis thaliana ALAD1 (HEMB1; AT1G69740) without the predicted transit peptide (ChloroP); also called recombinant ALAD; purified ALAD; source: E. coli Rosetta(DE3), pET28a, purified (Ni-NTA agarose); not shown: His6, N-terminal, kept
Regarding B1, the binding result is on record as “binds”.

The values above are taken from publication PMC6262466, “Towards Initial Indications for a Thiol-Based Redox Control of Arabidopsis 5-Aminolevulinic Acid Dehydratase” (Antioxidants, 2018).
